Reference: US11896642
No end group written: not given here.

B1: HA108 backbone HA, 10PM (peptide)
peptide: GQLYKSILYGSGSGSRR
modifications: not fully specified (C-terminus); also: several peptides per HA backbone, peptide load 10
B2: HA108 backbone HA, 20PM (peptide)
peptide: GQLYKSILYGSGSGSRR
modifications: not fully specified (C-terminus); also: several peptides per HA backbone, peptide load 20
B3: HA108 backbone HA, 30PM (peptide)
peptide: GQLYKSILYGSGSGSRR
modifications: not fully specified (C-terminus); also: several peptides per HA backbone, peptide load 30
B4: HA108 backbone HA, 50PM (peptide)
peptide: GQLYKSILYGSGSGSRR
modifications: not fully specified (C-terminus); also: several peptides per HA backbone, peptide load 50

The binders below were run against Rat tail monomeric collagen I (Corning) (rat) (UniProt P02454) (assay: competitive ELISA on plate-coated rat tail collagen I, competitor biotin Compound 1B; IC50 against that of Compound 1).

Q: For B1, which ratio IC50sample/IC50 Compound 1 is on record?
A: 14.8

Q: How did the ratio IC50sample/IC50 Compound 1 turn out when B2 was run?
A: 2.82

Q: For B3, which ratio IC50sample/IC50 Compound 1 is on record?
A: 13.4

Q: B4 was tested. Which ratio IC50sample/IC50 Compound 1 did it give?
A: 7.49

Each binder was assayed against biotin labeled PDGF-BB (R&D Systems) (UniProt P01127) (assay: competitive ELISA: biotin PDGF-BB pre-incubated with conjugate at 1 mg/mL, added to plate-coated PDGF-Rβ Fc; A450 against reference Compound 1 (higher = less inhibition)).
Sequence of UniProt P01127 (P01127 82-190): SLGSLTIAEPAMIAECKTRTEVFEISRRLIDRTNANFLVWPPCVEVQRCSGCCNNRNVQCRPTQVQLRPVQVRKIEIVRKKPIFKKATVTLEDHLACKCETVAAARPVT

Q: Which ratio Absorbance 450 conjugate/Absorbance 450 reference does the source give for B1 here?
A: 17

Q: With B2 as the binder, how does the ratio Absorbance 450 conjugate/Absorbance 450 reference read?
A: 16.3

Q: B3 was tested. Which ratio Absorbance 450 conjugate/Absorbance 450 reference did it give?
A: 14.2

Q: B4 was tested. Which ratio Absorbance 450 conjugate/Absorbance 450 reference did it give?
A: 9.31
